Series [1] has as its target EPI-001. The series is described as follows: 1H NMR chemical shift perturbation of EPI-001. Conditions: 1 molar equivalent of the corresponding Tau-5* mutant; parent: est. -0.018; read off a plot.
For series [2], the target named is EPI-001. The series is described as follows: intact MS. Conditions: t = 24 hours (last time point); parent: est. 21; read off a plot.
The target in series [3] is Cys404 (UniProt position 406, …). The series is described as follows: NMR. Conditions: 5 °C, 20 mM sodium phosphate, no added salt stated, 3 mM TCEP, 0.05% (w/v) NaN3, Reduced free thiol, intrinsically disordered fragments, no ligand. Protein concentrations were 70 μM Nt C123, 300 μM Tau-5* C404 and 150 μM Ct C518.
Series [4] deals with the molecule itself. As to the kind of experiment: dynamic light scattering; NR ADs in 20 mM sodium phosphate pH 7.4, 1 mM TCEP, 0.5% DMSO-d6, 5°C; percentage population of monomer and high-order species; 35 μM AR AD; with and without EPI-001.
A further series deals with Cys123 (position 123, …). As to the kind of experiment: NMR. Conditions: 5 °C, 20 mM sodium phosphate, no added salt stated, 3 mM TCEP, 0.05% (w/v) NaN3, Reduced free thiol, intrinsically disordered fragments, no ligand. Protein concentrations were 70 μM Nt C123, 300 μM Tau-5* C404 and 150 μM Ct C518.
For another series, the target named is Cys518. As to the kind of experiment: NMR. Conditions: 5 °C, 20 mM sodium phosphate, no added salt stated, 3 mM TCEP, 0.05% (w/v) NaN3, Reduced free thiol, intrinsically disordered fragments, no ligand. Protein concentrations were 70 μM Nt C123, 300 μM Tau-5* C404 and 150 μM Ct C518.

The results in this text go back to publication PMC12947862, “Oligomerization enables the selective targeting of an intrinsically disordered region by a small molecule” (Science Advances, 2026).

As usually defined, the pKa is the pH at which an ionisable group is half protonated.

Consider “AR AD fragment transactivation unit 5 (Tau-5*; residues 330 to 448) (from UniProt P10275) L436P”, for which the response with EPI-001 [1] is -0.013 p.p.m.
“AR AD fragment transactivation unit 5 (Tau-5*; residues 330 to 448) (from UniProt P10275) W433A; H434A; F437A”: in the series with EPI-001 [2], the other: EPI-001 adduct (%) is 9.3%. For the same molecule, the response with EPI-001 [1] is -0.008 p.p.m.
As to “AR AD fragment transactivation unit 5 (Tau-5*; residues 330 to 448) (from UniProt P10275) G407A”, the response with EPI-001 [1] was -0.024 p.p.m.
Same read-out and setting: the value for “AR AD fragment transactivation unit 5 (Tau-5*; residues 330 to 448) (from UniProt P10275) noAro” was -0.003 p.p.m.
Turning to “AR AD fragment transactivation unit 5 (Tau-5*; residues 330 to 448) (from UniProt P10275) A398P”, in the series with EPI-001 [2], the other: EPI-001 adduct (%) came out at 11%. Besides, the response with EPI-001 [1] is -0.012 p.p.m.
Regarding “AR AD fragment transactivation unit 5 (Tau-5*; residues 330 to 448) (from UniProt P10275) C404Y”, the response with EPI-001 [1] was -0.021 p.p.m.
“AR AD fragment transactivation unit 5 (Tau-5*; residues 330 to 448) (from UniProt P10275) Y393S; W397A; Y406S; H413A”: the other: EPI-001 adduct (%) with EPI-001 [2] was 2.5%. In addition, the response in the series with EPI-001 [1] was -0.006 p.p.m.
For “AR AD fragment transactivation unit 5 (Tau-5*; residues 330 to 448) (from UniProt P10275) G394A; S395A; G407A”, in that order: 26% and -0.042 p.p.m.

B1: Androgen receptor activation domain fragment Tau-5* C404 (residues 330-447, C448 deleted) (Homo sapiens; del448) (protein)
chain: AAGSSGTLELPSTLSLYKSGALDEAAAYQSRDYYNFPLALAGPPPPPPPPHPHARIKLENPLDYGSAWAAAAAQCRYGDLASLHGAGAAGPGSGSPSAAASSSWHTLFTAEEGQLYGP
For the molecule B1, the pKa in series [3] worked out at 8.95 ± 0.05.

B2: mineralocorticoid receptor activation domain (MR AD) (domain or fragment, human (from the printed UniProt entry), UniProt P08235 1-602, looked up)
chain: METKGYHSLPEGLDMERRWGQVSQAVERSSLGPTERTDENNYMEIVNVSCVSGAIPNNSTQGSSKEKQELLPCLQQDNNRPGILTSDIKTELESKELSATVAESMGLYMDSVRDADYSYEQQNQQGSMSPAKIYQNVEQLVKFYKGNGHRPSTLSCVNTPLRSFMSDSGSSVNGGVMRAVVKSPIMCHEKSPSVCSPLNMTSSVCSPAGINSVSSTTASFGSFPVHSPITQGTPLTCSPNVENRGSRSHSPAHASNVGSPLSSPLSSMKSSISSPPSHCSVKSPVSSPNNVTLRSSVSSPANINNSRCSVSSPSNTNNRSTLSSPAASTVGSICSPVNNAFSYTASGTSAGSSTLRDVVPSPDTQEKGAQEVPFPKTEEVESAISNGVTGQLNIVQYIKPEPDGAFSSSCLGGNSKINSDSSFSVPIKQESTKHSCSGTSFKGNPTVNPFPFMDGSYFSFMDDKDYYSLSGILGPPVPGFDGNCEGSGFPVGIKQEPDDGSYYPEASIPSSAIVGVNSGGQSFHYRIGAQGTISLSRSARDQSFQHLSSFPPVNTLVESWKSHGDLSSRRSDGYPVLEYIPENVSSSTLRSVSTGSSRPSKI
notes: source: E. coli Rosetta (DE3), purified from inclusion bodies (HisTrap in urea, SEC); not shown: His tag, N-terminal, cleaved
As for B2, the binding result in series [4] is reported as “binds”.

B3: estrogen receptor alpha activation domain (ERα AD) (domain or fragment, human (from the printed UniProt entry), UniProt P03372 1-184, looked up)
chain: MTMTLHTKASGMALLHQIQGNELEPLNRPQLKIPLERPLGEVYLDSSKPAVYNYPEGAAYEFNAAAAANAQVYGQTGLPYGPGSEAAAFGSNGLGGFPPLNSVSPSPLMLLHPPPQLSPFLQPHGQQVPYYLENEPSGYTVREAGPPAFYRPNSDNRRQGGRERLASTNDKGSMAMESAKETRY
notes: as for B2
With B3, the binding result in series [4] is “binds”.

B4: glucocorticoid receptor activation domain (GR AD) (domain or fragment, human (from the printed UniProt entry), UniProt P04150 1-420, looked up)
chain: MDSKESLTPGREENPSSVLAQERGDVMDFYKTLRGGATVKVSASSPSLAVASQSDSKQRRLLVDFPKGSVSNAQQPDLSKAVSLSMGLYMGETETKVMGNDLGFPQQGQISLSSGETDLKLLEESIANLNRSTSVPENPKSSASTAVSAAPTEKEFPKTHSDVSSEQQHLKGQTGTNGGNVKLYTTDQSTFDILQDLEFSSGSPGKETNESPWRSDLLIDENCLLSPLAGEDDSFLLEGNSNEDCKPLILPDTKPKIKDNGDLVLSSPSNVTLPQVKTEKEDFIELCTPGVIKQEKLGTVYCQASFPGANIIGNKMSAISVHGVSTSGGQMYHYDMNTASLSQQQDQKPIFNVIPPIPVGSENWNRCQGSGDDNLTSLGTLNFPGRTVFSNGYSSPSMRPDVSSPPSSSSTATTGPPPKL
notes: as for B2
Consider B4, for which, in series [4], the binding result is “binds”.

B5: progesterone receptor activation domain (PR AD) (domain or fragment, human (from the printed UniProt entry), UniProt P06401 1-566, looked up)
chain: MTELKAKGPRAPHVAGGPPSPEVGSPLLCRPAAGPFPGSQTSDTLPEVSAIPISLDGLLFPRPCQGQDPSDEKTQDQQSLSDVEGAYSRAEATRGAGGSSSSPPEKDSGLLDSVLDTLLAPSGPGQSQPSPPACEVTSSWCLFGPELPEDPPAAPATQRVLSPLMSRSGCKVGDSSGTAAAHKVLPRGLSPARQLLLPASESPHWSGAPVKPSPQAAAVEVEEEDGSESEESAGPLLKGKPRALGGAAAGGGAAAVPPGAAAGGVALVPKEDSRFSAPRVALVEQDAPMAPGRSPLATTVMDFIHVPILPLNHALLAARTRQLLEDESYDGGAGAASAFAPPRSSPCASSTPVAVGDFPDCAYPPDAEPKDDAYPLYSDFQPPALKIKEEEEGAEASARSPRSYLVAGANPAAFPDFPLGPPPPLPPRATPSRPGEAAVTAAPASASVSSASSSGSTLECILYKAEGAPPQQGPFAPPPCKAPGASGCLLPRDGLPSTSASAAAAGAAPALYPALGLNGLPQLGYQAAVLKEGLPQVYPPYLNYLRPDSEASQSPQYSFESLPQKI
notes: as for B2
On to B5, for which the binding result in series [4] is listed as “binds”.

B6: Androgen receptor activation domain fragment Nt C123 (residues 1-151, C129S) (Homo sapiens; C129S) (protein)
chain: MEVQLGLGRVYPRPPSKTYRGAFQNLFQSVREVIQNPGPRHPEAASAAPPGASLLLLQQQQQQQQQQQQQQQQQQQQQETSPRQQQQQQGEDGSPQAHRRGPTGYLVLDEEQQPSQPQSALECHPERGSVPEPGAAVAASKGLPQQLPAPP
Regarding B6, the pKa with Cys123 (position 123, …) stood at 8.86 ± 0.03.

B7: Androgen receptor activation domain fragment Ct C518 (residues 441-558, 4G polyG, C448 deleted) (Homo sapiens; del448;del451-470) (protein)
chain: EGQLYGPGGGGEAGAVAPYGYTRPPQGLAGQESDFTAPDVWYPGGMVSRVPYPSPTCVKSEMGPWMDSYSGPYGDMRLETARDHVLPIDYYFPPQKT
For B7, the pKa with Cys518 worked out at 8.20 ± 0.08.
